Measurements from the nanobody polyreactivity screen of Harvey et al. (2022).

Assay: yeast display, Sf9 membrane polyspecificity reagent, FACS + sequencing; frameworks hold sequencing errors
Summary of the method: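 Nanobodies came from a synthetic yeast display library in Saccharomyces cerevisiae BJ5465, induced with galactose for 36–48 hours and stained for 1 hour at 4 °C with 10% biotinylated, detergent-solubilized Sf9 membrane reagent. Cells were enriched on streptavidin microbeads and then FACS-sorted, with low and high (top ~1%) gates set on anti-HA fluorescence for expression and streptavidin fluorescence for reagent binding. Each polyreactivity label reflects the gate a clone came from. Genes were amplified by colony PCR, sequenced by MiSeq 2 × 250 and filtered by CDR length.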

| Sequence | polyreactivity (PSR sort gate) |
| --- | --- |
| QVQLVESGGGLVQAVGSLRLSCAASGRTFYGYALGWYRQQPGKVSELVAAISADTGRTRYADSVKGRFTISRDNAKNTVYLQMICLNPEDTAVYYCATRLFPQSRYYYWGQGTQVTVSS | high polyreactivity |
| QVQLVESGGGLVQAVGSLRLSCAASGSIFAVNTIGWYRQAPGKERELVASISQRGSSTYYADSVKGRFTISRDIAKNTVYLQMNSLIPEDTAVYYCAVVQRYWYAGIVPYDYWGQGTQVTVSS | high polyreactivity |
| QVQLVESGGGLVQAVGSLRLSCAASGSIFGAYAMGWYRQAPGKERELVAAITSGGSTNYADSVKGRFTISRDNAKNTVYLQMNSLKPEDTAVYYCAARRRYAKFRYDYWGQGTQVTVSS | high polyreactivity |
| QVQLVESGGGLVQAVGSLRLSCAASGSILASNAMGWYRQAPGKERELVAAITTSGGSTYYADSVKGRFTISRDNAKNTVYLQMNSLKPEDTAVYYCNAEYWLGRWLRYGYWGQGTQVTVSS | high polyreactivity |
| QVQLVESGGGLVQAVGSLRLSCAASGSIYGYAMGWYIQAPGKERELVAAISGRGGRTYYADSVKGRFTISRDNAKNTVYLQMNSLKPEDTAVYYCNFQWRYPYHYTVDYWGQGTQVTVSS | high polyreactivity |
| QVQLVESGGGLVQAVGSLRLSCAASVIIFDVNAMGWYRQAPAKERELVATISKRGGTTYYADSVKGRFTISRDNAKNTVYLQMYSLKPEDTAVYYCAARHQTLRSYRYDYWGQGTQVTVSS | low polyreactivity |
| QVQLVESGGGLVQAVGSLRLSFAASGFTFGRNSLGWYRQAPGKERELVAAMTSRVGSTYYADSVKGRFTISRDKAKNTLYLQMNSLKPEDTAVYYCAAVKGPERPTTPYDYWGQGTQVTVSS | high polyreactivity |
| QVQLVESGGGLVQAVVSLRLSCAASGRIFAYNAMGWYIQATGKERELVAAISSGGNTYYADSVKGRFTISRDNAKNTVYLQMNSLKPEDTAVYYCNAGVGWHRYYSNYDYWGLGTQVTVSS | low polyreactivity |
| QVQLVESGGGLVQDGGSLRLSCAASGRIFGYYAMGGYRQAPGKERELVASINGGGSTNYADSVKGRFTISRDNAKTTVYLQMNSLKPEDTAVYDCAAAQWAYWLLYNYWGHGTQVTVSS | low polyreactivity |
| QVQLVESGGGLVQEGGRLRLSCAASGITFRYYAMGWYRQAPGKERELVAAISWGGGSTYYADSVKGRFTISRDNATNTVYLQMNSLKPEDTAVYYCNARGSVRPYGPRATLDYWGQGTQVTVSS | high polyreactivity |
| QVQLVESGGGLVQEGGSLRLICAASGSTFYDYAMGWYRQAPGKERELVAAINWSSDTTYYADSVKGRFTISRDNAKNTVYLQMNSMKPEDTAVYYCATDSAYRGYDYWGQGTQVTVSS | low polyreactivity |
| QVQLVESGGGLVQEGGSLRLRCAASGRIFYNYAMGCYRQAPGKERELVAAITGRGGRTYYADSVKGRFTISRDNAKNTVYLQINSLKPEDTAVYYCSVRAGTAGYPKYDYWGPGTQVTVSS | high polyreactivity |
| QVQLVESGGGLVQEGGSLRLRCAASGSTFIRYVMGWYRQAPGKERELVAGINSSGGSTNYADSVKGRFTISRDNAKNTVYLQMNSLKPVDTAVYYCNADLRSEYVYWGQGTQVTVSS | low polyreactivity |
| QVQLVESGGGLVQEGGSLRLSCAASESNFPRNAMGLYRKEPGKEREIVAAISSAGSTYYADSVKWRFTISRDNAKNTVYLQMNSLKQEDTAVYYCAARLYWPLIVVDLYGYDYWGQGNQVTVSS | low polyreactivity |
| QVQLVESGGGLVQEGGSLRLSCAASGFTFAYYAMGWYRQAPGKERELVASISYNGGITNYADSVKGRFTISRYNAKNTVYLQMNSLKPEDTAVYYCAAGVFFFTFDYWGQGTQVTVSS | low polyreactivity |
| QVQLVESGGGLVQEGGSLRLSCAASGFTFRQYAMGRSRQAPGKEMELVAAITKTGGSTYYADSVKGRFTISRDHAKNTVYLQMNSLKPEDPAVYYCNAARETRPRDYYWGQGTQVTVSS | low polyreactivity |

| Sequence | polyreactivity (PSR sort gate) |
| --- | --- |
| QVQLVESGGGLVQEGGSLRLSCAASGFTFTSNAMGWYRQAPGKERELVAAITYSGGITYYADSVKGRFTISRDNAKNTVYLQMNSLKPEDTAVYYCAADSTPYVLSGNYDYWGQGTQVTVSS | low polyreactivity |
| QVQLVESGGGLVQEGGSLRLSCAASGFTVTDYAMGLYRQAPGKERELVAAITSSGGRTYYADSVKGRFTISRDNAKNTVYLQMNSLKPEDTAGYYCTARPHGSWFEYDYWGQGTEVTVSS | high polyreactivity |
| QVQLVESGGGLVQEGGSLRLSCAASGIIFDGNARGWYRQAPGKEKELVASITSDSSTNYADSVKGRFTISRDNAKNTVYLQMNSLKPEDTAVYYCAAAHWIAPRSDYWGQGTQVTLSS | low polyreactivity |
| QVQLVESGGGLVQEGGSLRLSCAASGRTFYINGLGWYRQAPGKEREFVASITWRGGRTYYADSVKGRFTISRDNAKNTVYLQMNSLKPEDTAVYYCNAVGLGGRATSRWYTHYYWGQGTQVTVSS | high polyreactivity |
| QVQLVESGGGLVQEGGSLRLSCAASGRTSNINAMGWYRQAPGKERELVAAINSDGSTYYAYSVKGRFTISRDNAKNTVYLQMNSLKPEDTAVYYCAAVSLFRDSQFDYWGQGTQVTVSS | low polyreactivity |
| QVQLVESGGGLVQEGGSLRLSCAASGSIFDTYAMGWYRQAPGKERELVAAISSGGRTYYADSVKGRFTISRDNAKNTDYFQMNSLKPEYTAVYYCAKERYQQGNYYRYGYWGQGTQVTVSS | high polyreactivity |
| QVQLVESGGGLVQEGGSLRLSCAASGSIFDVYAMGWYRQAPGKERELVAAISSSGSTYYADSVKGRFTISRDNAKNTVYLQMNSLKPEDTAVYYCAADQADDDDYYYWGQVTQVTVSS | low polyreactivity |
| QVQLVESGGGLVQEGGSLRLSCAASGSIFDVYAMGWYRQAPGKERELVAAISSSGSTYYADSVKGRFTISRDNAKNTVYLQMNSLKPEDTAVYYCASDQADDDDYYYWGQGNQVTVSS | low polyreactivity |
| QVQLVESGGGLVQEGGSLRLSCAASGSIFFPYAMGWYRQAPGKEREFFADITWSGGSTYYADSVKGRFTISRDNAKNTVYLQMNSLKPEDTAVYYCNTDYYLLSVVWFSYTLYEYWGQGTQVTLSS | high polyreactivity |
| QVQLVESGGGLVQEGGSLRLSCAASGSIFGYYAMGWYRQAPGKERELVAAISRSGGSTYYADSVKGRFTISRDNAKNTVSLQMNSLKPEDTAFYYCAADDYPYGNYYWGKGTQVTVSS | high polyreactivity |
| QVQLVESGGGLVQEGGSLRLSCAASGSIFPYYAMGWYRQAPGKERELVAAISSAGSTNYADSVKGRFTISRDNAKNTVYLQMNSLKPEDTAVYYCAADLFYREFDYWGQGTQVTVSS | low polyreactivity |
| QVQLVESGGGLVQEGGSLRLSCAASGSIFSGYAMGWYRPAPGKERELVAAISSSGGSTYYADSVKGRFTISRDNAKNTVYLQMNSLKPEDTAFYYCAADARWLWVYGAYGGLDYWGQGTQVTLSS | low polyreactivity |
| QVQLVESGGGLVQEGGSLRLSCAASGSILAGYAMGWYRQPPRKERELVDDITSGGDTYYADSVKGRFTISRDNAKNTVYLQMKSLKPEDTAVYYCNAVYEGRYEYAYYYRYDYWGQGTQVTVSS | high polyreactivity |
| QVQLVESGGGLVQEGGSLRLSCAASGSIYGWDAMGWYRQAPGQEREYVAAIDYSDGGRTYSADSVKGRFTISRDPAKNTVYLQMNSLKPADTAVYYCAAGYVYPHYFIDEYWGQGTQVTVSS | high polyreactivity |
| QVQLVESGGGLVQEGGSLRLSCAASGSTFERNAMGWYRQAPGKERELVAAISAIGDSTYYADSVKGRFTISRDNAKNTVYLQMKSLNPEDTAVYYCAARYTRYHIGRGYYYWGQGTQVTVSS | high polyreactivity |
| QVQLVESGGGLVQEGGSLRLSCAASGSTFKYYAMGWYRQAPGKERELVAAISKGATRTYYADSVKGRFTISRDNAKNTVYLQMNSLKPEDTAVYYCAARGRWNVPARRDYWGQGTQVTVSS | high polyreactivity |
